For assay [1], the target named is T1, 可溶型GPC3コアタンパク質 (human, UniProt P51654 25-563).
T1 construct: also called 可溶型GPC3コア蛋白質; soluble GPC3 core protein; not shown: C-terminal His tag
As to the kind of experiment: ELISA screening of hybridoma supernatant on immobilised soluble GPC3 core protein.

For a further assay, the target named is T2, GC-1 (human, UniProt P51654 495-563).
T2 construct: Made in E. coli DH5α, purified on glutathione resin; also called GST融合タンパク質GC-1(Ser495からLys563); not shown: GST (glutathione S-transferase) of vector pGEX-4T-3 (Amersham), N-terminal to the GPC3 piece
T2 sequence: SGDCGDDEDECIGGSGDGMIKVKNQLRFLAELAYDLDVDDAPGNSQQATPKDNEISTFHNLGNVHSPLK
Briefly: Western blot of GST fusion proteins, reducing SDS-PAGE. Background: In western blotting, separated proteins are transferred to a membrane and probed.

In a further assay the target is T3, GC-3 (human, UniProt P51654 524-563).
T3 construct: also called GST融合タンパク質GC-3(Ala524からLys563); not shown: GST (glutathione S-transferase) of vector pGEX-4T-3 (Amersham), N-terminal to the GPC3 piece
T3 chain: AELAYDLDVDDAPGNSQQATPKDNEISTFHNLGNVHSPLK
The description is as above.

A further assay has as its target T4, GC-2 (human, UniProt P51654 510-563).
T4 construct: also called GST融合タンパク質GC-2(Gly510からLys563); not shown: GST (glutathione S-transferase) of vector pGEX-4T-3 (Amersham), N-terminal to the GPC3 piece
T4 sequence: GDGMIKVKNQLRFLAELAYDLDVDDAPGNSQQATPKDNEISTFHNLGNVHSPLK
The assay is described as above.

Assay [2] has as its target T1, 可溶型GPC3コアタンパク質. As to the kind of experiment: ELISA, purified antibody from 10 μg/mL in 3-fold steps on immobilised soluble GPC3 core protein. Background: ELISA stands for enzyme-linked immunosorbent assay.
The target in assay [3] is T1, 可溶型GPC3コアタンパク質. Briefly: ELISA on GPC3 (Fig. 15); reference antibody of the comparison.

B1: M10D2 (antibody, V domains shown)
VH: QVQLQQPGAELVKPGASVKLSCKASGYTFTSYWMHWVKQRPGQGLEWIGEIDPSDSYTYYNQKFRGKATLTVDKSSNTAYMQLSSLTSEDSAVYYCSRSNLGDGHYRFPAFPYWGQGTLVTVSA
VL: DIVLTQSPATLSVTPGDRVSLSCRASHSISNFLHWYPQKSHESPRLLIKYASQSISGIPSRFSGNGSGTDFTLSINSVETEDFGMYFCQQSNIWSLTFGAGTKLELK
notes: Mouse hybridoma antibody
On to B1, for which, in the assay with 可溶型GPC3コアタンパク質 [1], the binding result is reported as “binds”.

B2: M5B9 (antibody, V domains shown)
VH: EVQLQQSGTVLARPGASVKMSCKASGYTFTGYWMHWVKQRPGQGLEWIGAIYPGNSDTNYNQKFKGKAKLTAVTSASTAYMELSSLTNEDAAVYHCTRSGDLTGGLAYWGQGTLVTVSA
VL: DIVMTQAAFSNPVTLGTSASISCRSSKSLLHSNGITYLYWFLQKPGQSPQLLIYQMSNLASGVPDRFSSSGSGTDFTLRISRVEAEDVGVYYCAQNLELPYTFGSGTKLEIK
notes: Mouse hybridoma antibody
For the molecule B2, the binding result with 可溶型GPC3コアタンパク質 [1] is “binds”.

B3: M11F1 (antibody, V domains shown)
VH: QVTLKESGPGILQPSQTLSLTCSFSGFSLSIYGMGVGWIRQPSGKGLEWLANIWWNDDKYYNSALKSRLTISKDTSNNQVFLKISSVDTADTATYYCAQIGYFYFDYWGQGTTLTVSS
VL: DVVMTQTPLSLPVSLGDQASISCRSSQSLVHSNGNTYLHWYLQKPGQSPKLLIYKVSNRFSGVPDRFSGSGSGTDFTLKISRVEAEDLGVYFCSQSTHVPWTFGGGTKLEIK
notes: Mouse hybridoma antibody
In the case of B3, the binding result in the assay with GC-1, with GC-3, with GC-2 and with 可溶型GPC3コアタンパク質 [2] was “binds” each time.

B4: GC33マウス−ヒトキメラ抗体 (antibody, V domains shown)
VH: QVQLQQSGAELVRPGASVKLSCKASGYTFTDYEMHWVKQTPVHGLKWIGALDPKTGDTAYSQKFKGKATLTADKSSSTAYMELRSLTSEDSAVYYCTRFYSYTYWGQGTLVTVSA
VL: DVVMTQTPLSLPVSLGDQASISCRSSQSLVHSNGNTYLHWYLQKPGQSPKLLIYKVSNRFSGVPDRFSGSGSGTDFTLKISRVEAEDLGVYFCSQNTHVPPTFGSGTKLEIK
notes: Mouse GC33 variable regions on human IgG1 and human κ constant regions (vectors HEFgγ1, HEFgκ); also called キメラGC33抗体; マウスGC33可変領域の抗体(mouse / mouse)
Consider B4, for which, in the assay with 可溶型GPC3コアタンパク質 [3], the binding result is “binds”.

Source of the values: JP2007300927A (dated 2007).
